One block for each binder: values may come before it.
Key:
crystal structure = molecular target: the molecule itself; assay: crystal structure
full-length mouse DNA2 = molecular target: T1, full-length mouse DNA2 (mouse, UniProt Q6ZQJ5 1-1062); assay: cryo-EM structure
T1 sequence: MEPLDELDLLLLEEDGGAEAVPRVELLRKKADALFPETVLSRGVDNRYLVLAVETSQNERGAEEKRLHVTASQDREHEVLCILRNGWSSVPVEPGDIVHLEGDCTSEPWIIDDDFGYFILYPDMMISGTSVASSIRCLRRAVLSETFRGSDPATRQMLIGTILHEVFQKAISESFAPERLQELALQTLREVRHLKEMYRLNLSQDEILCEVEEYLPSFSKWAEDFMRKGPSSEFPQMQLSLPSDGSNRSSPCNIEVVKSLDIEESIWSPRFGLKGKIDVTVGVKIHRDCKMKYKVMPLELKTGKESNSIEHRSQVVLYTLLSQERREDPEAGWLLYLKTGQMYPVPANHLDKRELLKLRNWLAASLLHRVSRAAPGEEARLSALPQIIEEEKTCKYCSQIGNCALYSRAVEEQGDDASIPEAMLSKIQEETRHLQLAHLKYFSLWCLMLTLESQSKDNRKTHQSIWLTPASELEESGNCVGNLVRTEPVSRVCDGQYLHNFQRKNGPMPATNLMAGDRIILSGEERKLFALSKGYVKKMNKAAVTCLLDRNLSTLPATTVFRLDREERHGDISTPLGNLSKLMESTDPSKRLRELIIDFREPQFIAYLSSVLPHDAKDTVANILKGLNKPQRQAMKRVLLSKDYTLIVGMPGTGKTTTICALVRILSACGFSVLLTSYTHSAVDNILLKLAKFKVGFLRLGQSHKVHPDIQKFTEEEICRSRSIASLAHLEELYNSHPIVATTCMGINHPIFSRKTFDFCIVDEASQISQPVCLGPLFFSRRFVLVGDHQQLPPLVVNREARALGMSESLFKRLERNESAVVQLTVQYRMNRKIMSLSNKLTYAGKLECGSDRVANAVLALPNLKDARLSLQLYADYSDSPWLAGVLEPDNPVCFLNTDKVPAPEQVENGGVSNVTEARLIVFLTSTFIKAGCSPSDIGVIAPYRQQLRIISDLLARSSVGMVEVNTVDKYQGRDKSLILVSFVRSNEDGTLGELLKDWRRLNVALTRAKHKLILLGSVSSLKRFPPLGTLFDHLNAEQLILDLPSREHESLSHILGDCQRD

[1] = molecular target: T2, human primase (PriL-PriS heterodimer) (human, UniProt P49643;P49642); assay: ITC
T2 sequence 1: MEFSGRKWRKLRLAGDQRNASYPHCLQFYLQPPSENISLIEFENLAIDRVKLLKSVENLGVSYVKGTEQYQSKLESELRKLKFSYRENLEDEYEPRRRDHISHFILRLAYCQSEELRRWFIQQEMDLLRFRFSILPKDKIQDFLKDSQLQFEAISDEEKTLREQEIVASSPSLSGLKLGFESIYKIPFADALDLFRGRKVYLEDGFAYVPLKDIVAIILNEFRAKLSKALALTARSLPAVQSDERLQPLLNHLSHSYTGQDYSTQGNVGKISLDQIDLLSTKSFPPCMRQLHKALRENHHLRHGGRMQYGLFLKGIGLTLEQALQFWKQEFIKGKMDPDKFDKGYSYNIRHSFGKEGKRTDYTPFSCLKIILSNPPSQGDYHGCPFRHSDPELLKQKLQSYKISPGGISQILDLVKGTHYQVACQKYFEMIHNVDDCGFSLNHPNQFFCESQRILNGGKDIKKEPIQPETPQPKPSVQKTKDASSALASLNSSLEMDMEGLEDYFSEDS
T2 sequence 2: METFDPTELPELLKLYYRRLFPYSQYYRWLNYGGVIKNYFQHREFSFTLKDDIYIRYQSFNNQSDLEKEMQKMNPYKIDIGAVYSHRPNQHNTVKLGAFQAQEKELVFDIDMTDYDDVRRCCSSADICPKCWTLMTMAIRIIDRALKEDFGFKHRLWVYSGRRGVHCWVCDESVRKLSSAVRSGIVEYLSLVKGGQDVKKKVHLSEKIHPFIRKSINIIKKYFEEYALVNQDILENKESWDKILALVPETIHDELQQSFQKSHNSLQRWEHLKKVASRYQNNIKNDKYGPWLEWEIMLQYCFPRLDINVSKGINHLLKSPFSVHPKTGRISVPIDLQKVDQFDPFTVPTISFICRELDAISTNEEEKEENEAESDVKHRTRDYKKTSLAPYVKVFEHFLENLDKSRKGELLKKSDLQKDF

Kd [1]: 5.4 µM
B3: human CIAO1-CIAO2B core complex (complex)
chain 1: not shown
chain 2: MVGGGGVGGGLLENANPLIYQRSGERPVTAGEEDEQVPDSIDAREIFDLIRSINDPEHPLTLEELNVVEQVRVQVSDPESTVAVAFTPTIPHCSMATLIGLSIKVKLLRSLPQRFKMDVHITPGTHASEHAVNKQLADKERVAAALENTHLLEVVNQCLSARS

Kd [1]: 0.832 µM
B4: human MMS19^710-1030-CIAO1-CIAO2B complex (complex)
chain 1: GQRRLIALLMAFVCSLPRNVEIPQLNQLMRELLELSCCHSCPFSSTAAAKCFAGLLNKHPAGQQLDEFLQLAVDKVEAGLGSGPCRSQAFTLLLWVTKALVLRYHPLSSCLTARLMGLLSDPELGPAAADGFSLLMSDCTDVLTRAGHAEVRIMFRQRFFTDNVPALVQGFHAAPQDVKPNYLKGLSHVLNRLPKPVLLPELPTLLSLLLEALSCPDCVVQLSTLSCLQPLLLEAPQVMSLHVDTLVTKFLNLSSSPSMAVRIAALQCMHALTRLPTPVLLPYKPQVIRALAKPLDDKKRLVRKEAVSARGEWFLLGSPGS
chain 2: not shown
chain 3: B3 chain 2

Continued, binder first:

B1: full-length mouse MMS19 (natural protein)
chain: MAAATGLEEAVAPMGALCGLVQDFVMGQQEGPADQVAADVKSGGYTVLQVVEALGSSLENAEPRTRARGAQLLSQVLLQCHSLLSEKEVVHLILFYENRLKDHHLVVPSVLQGLRALSMSVALPPGLAVSVLKAIFQEVHVQSLLQVDRHTVFSIITNFMRSREEELKGLGADFTFGFIQVMDGEKDPRNLLLAFRIVHDLISKDYSLGPFVEELFEVTSCYFPIDFTPPPNDPYGIQREDLILSLRAVLASTPRFAEFLLPLLIEKVDSEILSAKLDSLQTLNACCAVYGQKELKDFLPSLWASIRREVFQTASERVEAEGLAALHSLTACLSCSVLRADAEDLLGSFLSNILQDCRHHLCEPDMKLVWPSAKLLQAAAGASARACEHLTSNVLPLLLEQFHKHSQSNQRRTILEMILGFLKLQQKWSYEDRDERPLSSFKDQLCSLVFMALTDPSTQLQLVGIRTLTVLGAQPGLLSAEDLELAVGHLYRLTFLEEDSQSCRVAALEASGTLATLYPGAFSRHLLPKLAEELHKGESDVARADGPTKCSRHFRCLQALSAVSTHPSIVKETLPLLLQHLCQANKGNMVTESSEVVAVCQSLQQVAEKCQQDPESYWYFHKTAVPCLFALAVQASMPEKESSVLRKVLLEDEVLAALASVIGTATTHLSPELAAQSVTCIVPLFLDGNTSFLPENSFPDQFQPFQDGSSGQRRLVALLTAFVCSLPRNVEIPQLNRLMRELLKQSCGHSCPFSSTAATKCFAGLLNKQPPGQQLEEFLQLAVGTVEAGLASESSRDQAFTLLLWVTKALVLRYHPLSACLTTRLMGLLSDPELGCAAADGFSLLMSDCTDVLTRAGHADVRIMFRQRFFTDNVPALVQGFHAAPQDVKPNYLKGLSHVLNRLPKPVLLPELPTLLSLLLEALSCPDSVVQLSTLSCLQPLLLEAPQIMSLHVDTLVTKFLNLSSSYSMAVRIAALQCMHALTRLPTSVLLPYKSQVIRALAKPLDDKKRLVRKEAVSARGEWFLLGSPGS
binding result (crystal structure): binds

B2: human MMS19 (subunit of the purified CTC) (natural protein)
chain: MAAAAAVEAAAPMGALWGLVHDFVVGQQEGPADQVAADVKSGNYTVLQVVEALGSSLENPEPRTRARAIQLLSQVLLHCHTLLLEKEVVHLILFYENRLKDHHLVIPSVLQGLKALSLCVALPPGLAVSVLKAIFQEVHVQSLPQVDRHTVYNIITNFMRTREEELKSLGADFTFGFIQVMDGEKDPRNLLVAFRIVHDLISRDYSLGPFVEELFEVTSCYFPIDFTPPPNDPHGIQREDLILSLRAVLASTPRFAEFLLPLLIEKVDSEVLSAKLDSLQTLNACCAVYGQKELKDFLPSLWASIRREVFQTASERVEAEGLAALHSLTACLSRSVLRADAEDLLDSFLSNILQDCRHHLCEPDMKLVWPSAKLLQAAAGASARACDSVTSNVLPLLLEQFHKHSQSSQRRTILEMLLGFLKLQQKWSYEDKDQRPLNGFKDQLCSLVFMALTDPSTQLQLVGIRTLTVLGAQPDLLSYEDLELAVGHLYRLSFLKEDSQSCRVAALEASGTLAALYPVAFSSHLVPKLAEELRVGESNLTNGDEPTQCSRHLCCLQALSAVSTHPSIVKETLPLLLQHLWQVNRGNMVAQSSDVIAVCQSLRQMAEKCQQDPESCWYFHQTAIPCLLALAVQASMPEKEPSVLRKVLLEDEVLAAMVSVIGTATTHLSPELAAQSVTHIVPLFLDGNVSFLPENSFPSRFQPFQDGSSGQRRLIALLMAFVCSLPRNVEIPQLNQLMRELLELSCCHSCPFSSTAAAKCFAGLLNKHPAGQQLDEFLQLAVDKVEAGLGSGPCRSQAFTLLLWVTKALVLRYHPLSSCLTARLMGLLSDPELGPAAADGFSLLMSDCTDVLTRAGHAEVRIMFRQRFFTDNVPALVQGFHAAPQDVKPNYLKGLSHVLNRLPKPVLLPELPTLLSLLLEALSCPDCVVQLSTLSCLQPLLLEAPQVMSLHVDTLVTKFLNLSSSPSMAVRIAALQCMHALTRLPTPVLLPYKPQVIRALAKPLDDKKRLVRKEAVSARGEWFLLGSPGS
binding result (full-length mouse DNA2): binds
